Assay results published in US20180057604A1 (Genentech, published 2018).

T1: cyno TfR extracellular domain (analogous construct to human TfR ecd) (cynomolgus monkey, UniProt Q5RDH6 87-760 (Pongo abelii entry))
T1 construct: also called cynoTfR ecd
T1 chain: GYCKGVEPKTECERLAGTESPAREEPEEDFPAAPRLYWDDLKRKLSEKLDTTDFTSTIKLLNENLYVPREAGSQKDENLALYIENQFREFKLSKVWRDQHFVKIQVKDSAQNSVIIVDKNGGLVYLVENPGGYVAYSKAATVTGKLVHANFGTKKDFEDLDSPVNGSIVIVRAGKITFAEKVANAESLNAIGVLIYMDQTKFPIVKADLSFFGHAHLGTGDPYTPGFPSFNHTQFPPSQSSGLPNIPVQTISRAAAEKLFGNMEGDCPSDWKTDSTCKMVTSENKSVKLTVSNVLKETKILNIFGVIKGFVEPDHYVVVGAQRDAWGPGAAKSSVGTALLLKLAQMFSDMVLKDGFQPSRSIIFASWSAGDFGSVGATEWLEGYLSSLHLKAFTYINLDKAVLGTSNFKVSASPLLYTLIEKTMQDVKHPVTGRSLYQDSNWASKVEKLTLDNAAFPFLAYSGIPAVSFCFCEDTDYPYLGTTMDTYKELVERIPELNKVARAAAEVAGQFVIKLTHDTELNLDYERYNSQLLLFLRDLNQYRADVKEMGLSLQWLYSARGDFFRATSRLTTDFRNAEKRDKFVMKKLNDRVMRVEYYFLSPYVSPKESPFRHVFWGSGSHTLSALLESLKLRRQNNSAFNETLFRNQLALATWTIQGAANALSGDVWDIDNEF


How the values were obtained:
human BACE1 ECD [1] = experiment: cell-based or functional assay
murine BACE1 ECD [2] = experiment: cell-based or functional assay
[3] = biological target: BACE1 in primary mouse cortical neurons (mouse, UniProt P56818 46-501); experiment: cell-based or functional assay
Chain of BACE1 in primary mouse cortical neurons (P56818 46-501): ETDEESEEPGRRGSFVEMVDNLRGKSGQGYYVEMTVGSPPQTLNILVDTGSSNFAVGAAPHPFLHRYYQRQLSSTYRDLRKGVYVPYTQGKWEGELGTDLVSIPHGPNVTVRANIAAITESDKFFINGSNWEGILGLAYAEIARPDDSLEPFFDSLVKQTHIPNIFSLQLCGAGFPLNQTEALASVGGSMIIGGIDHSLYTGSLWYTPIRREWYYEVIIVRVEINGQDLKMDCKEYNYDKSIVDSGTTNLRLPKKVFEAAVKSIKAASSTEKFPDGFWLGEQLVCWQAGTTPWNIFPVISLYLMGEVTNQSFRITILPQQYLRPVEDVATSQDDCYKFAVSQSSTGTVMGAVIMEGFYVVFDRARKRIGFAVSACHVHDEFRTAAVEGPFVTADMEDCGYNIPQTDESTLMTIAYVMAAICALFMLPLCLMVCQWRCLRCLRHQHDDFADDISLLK

human BACE1 ECD [4] = biological target: T2, human BACE1 ECD; experiment: Octet, pH 7.5;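 also: antibodies captured on anti-human capture biosensor tips, dissociation followed in PBS with BSA buffer, kinetics fitted with a one-to-one binding model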
T2 construct: analyte of the Octet assay (200 nM) and enzyme of the first short substrate assay; also called human BACE1 extracellular domain
T2 sequence (single chain, as listed by the source limits assumed): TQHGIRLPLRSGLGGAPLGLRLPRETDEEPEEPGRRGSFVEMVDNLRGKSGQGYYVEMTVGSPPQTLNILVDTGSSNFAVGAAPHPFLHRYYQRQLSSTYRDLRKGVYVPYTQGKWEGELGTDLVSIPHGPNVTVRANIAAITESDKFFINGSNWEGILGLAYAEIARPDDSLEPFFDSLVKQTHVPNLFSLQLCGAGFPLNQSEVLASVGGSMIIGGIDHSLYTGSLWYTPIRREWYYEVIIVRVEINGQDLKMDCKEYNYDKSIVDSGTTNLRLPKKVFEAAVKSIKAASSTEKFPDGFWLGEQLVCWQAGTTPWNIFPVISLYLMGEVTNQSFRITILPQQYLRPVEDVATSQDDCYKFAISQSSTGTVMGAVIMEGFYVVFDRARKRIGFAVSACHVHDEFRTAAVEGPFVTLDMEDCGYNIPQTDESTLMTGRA

murine BACE1 ECD [5] = biological target: T3, murine BACE1 ECD; experiment: Octet, pH 7.5;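 also: antibodies captured on anti-human capture biosensor tips, dissociation followed in PBS with BSA buffer, kinetics fitted with a one-to-one binding model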
T3 construct: analyte of the Octet assay (200 nM) and enzyme of the first short substrate assay
T3 sequence (single chain, as listed by the source limits assumed): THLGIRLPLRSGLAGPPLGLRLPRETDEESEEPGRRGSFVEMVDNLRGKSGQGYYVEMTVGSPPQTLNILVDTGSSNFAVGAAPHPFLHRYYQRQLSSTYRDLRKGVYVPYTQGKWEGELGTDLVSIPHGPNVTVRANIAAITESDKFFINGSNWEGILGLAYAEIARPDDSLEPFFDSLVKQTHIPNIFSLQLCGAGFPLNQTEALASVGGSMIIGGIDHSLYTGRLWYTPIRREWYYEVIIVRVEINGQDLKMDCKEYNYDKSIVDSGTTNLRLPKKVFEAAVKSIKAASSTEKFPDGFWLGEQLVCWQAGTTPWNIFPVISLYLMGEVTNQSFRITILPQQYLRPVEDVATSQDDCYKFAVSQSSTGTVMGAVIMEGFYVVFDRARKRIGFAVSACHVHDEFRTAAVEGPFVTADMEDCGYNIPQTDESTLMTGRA

[6] = biological target: T4, human BACE1 (R&D Systems) (human, UniProt P56817); experiment: SPR (Biacore)
T4 construct: recombinant, commercial (R&D Systems)
T4 sequence (P56817 22-457 limits assumed): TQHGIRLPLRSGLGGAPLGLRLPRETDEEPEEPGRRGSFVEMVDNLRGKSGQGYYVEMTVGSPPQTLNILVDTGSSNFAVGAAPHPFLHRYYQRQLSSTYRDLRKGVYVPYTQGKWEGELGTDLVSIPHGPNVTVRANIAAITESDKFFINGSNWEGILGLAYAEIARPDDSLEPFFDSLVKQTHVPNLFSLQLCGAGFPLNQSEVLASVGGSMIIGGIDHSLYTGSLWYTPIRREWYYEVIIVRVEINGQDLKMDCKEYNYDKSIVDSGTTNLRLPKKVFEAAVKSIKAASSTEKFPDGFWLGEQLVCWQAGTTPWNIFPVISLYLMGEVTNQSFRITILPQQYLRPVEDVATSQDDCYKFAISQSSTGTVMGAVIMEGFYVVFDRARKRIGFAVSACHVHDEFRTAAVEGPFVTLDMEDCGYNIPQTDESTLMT

[7] = biological target: BACE1 (HTRF long substrate and FRET short substrate assays of Example 9D); experiment: cell-based or functional assay
human BACE1 ECD [8] = biological target: T2, human BACE1 ECD; experiment: Octet, pH 5.0
murine BACE1 ECD [9] = biological target: T3, murine BACE1 ECD; experiment: Octet, pH 5.0
[10] = biological target: T1, cyno TfR extracellular domain …; experiment: SPR, IgG;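 also: His-tagged TfR captured via immobilized anti-His antibody on a CM5 chip, antibody injected in 3-fold dilution series by single cycle kinetics, 1:1 Langmuir or steady-state fit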
[11] = biological target: T5, human TfR extracellular domain with N-terminal His tag (human, UniProt P02786 89-760); experiment: SPR, IgG;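 also: His-tagged TfR captured via immobilized anti-His antibody on a CM5 chip, antibody injected in 3-fold dilution series by single cycle kinetics, 1:1 Langmuir or steady-state fit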
T5 construct: Biotinylated in some assays; also called huTfR; HuTfR
T5 sequence (P02786 89-760 G142S): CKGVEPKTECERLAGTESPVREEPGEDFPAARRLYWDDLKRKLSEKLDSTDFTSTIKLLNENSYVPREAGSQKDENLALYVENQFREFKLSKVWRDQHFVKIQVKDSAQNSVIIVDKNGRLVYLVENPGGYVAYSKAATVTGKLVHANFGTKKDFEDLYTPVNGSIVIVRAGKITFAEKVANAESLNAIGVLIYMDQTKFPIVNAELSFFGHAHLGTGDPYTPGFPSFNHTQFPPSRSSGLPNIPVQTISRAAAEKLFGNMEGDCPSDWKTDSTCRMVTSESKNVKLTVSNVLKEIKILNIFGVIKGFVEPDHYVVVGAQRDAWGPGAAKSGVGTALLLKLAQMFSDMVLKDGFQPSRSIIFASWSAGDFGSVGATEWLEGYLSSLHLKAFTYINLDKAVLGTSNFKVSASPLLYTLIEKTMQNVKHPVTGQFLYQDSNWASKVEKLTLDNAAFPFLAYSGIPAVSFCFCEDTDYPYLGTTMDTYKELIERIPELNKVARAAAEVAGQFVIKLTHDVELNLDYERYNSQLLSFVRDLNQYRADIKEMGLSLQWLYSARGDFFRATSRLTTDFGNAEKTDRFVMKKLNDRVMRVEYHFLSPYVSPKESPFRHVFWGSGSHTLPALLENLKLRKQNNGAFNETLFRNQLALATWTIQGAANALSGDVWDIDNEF

| % inhibition of BACE1 activity, short FRET substrate (human BACE1 ECD [1]) | % inhibition of BACE1 activity, short FRET substrate (murine BACE1 ECD [2]) | IC50, Abeta x-40 in mouse cortical neurons [3] | maximal % inhibition of Abeta x-40 [3] | Kd (human BACE1 ECD [4]) | Kd (murine BACE1 ECD [5]) | Kd [6] | EC50, FRET short substrate [7] | EC50, HTRF long substrate [7] | Kd (human BACE1 ECD [8]) | Kd (murine BACE1 ECD [9]) | Kd [10] | Kd [11] | Binder |
| --- | --- | --- | --- | --- | --- | --- | --- | --- | --- | --- | --- | --- | --- |
| -54% | -35% | 46.7 nM | 74% | 94 nM | 94 nM | 14.5 nM | 36.8 nM | 720 nM | 120 nM | 180 nM | – | – | 5260 (antibody, V domains shown, anti-BACE1 IgG) VH: QVQLVQSGAEVKKPGSSVKVSCKASGGTFSSYAISWVRQAPGQGLEWMGSIIPIFGTANYAQKFQGRVTITADESTSTAYMELSSLRSEDTAVYYCARSGGTKYGMLDVWGQGTMVTVSS VL: EIVMTQSPATLSVSPGERATLSCRASQSVGSNLAWYQQKPGQAPRLLIYGASTRATGIPARFSGSGSGTEFTLTISSLQSEDFAVYYCQQAVVWPPRTFGGGTKVEIK |
| -89% | -175% | 7.11 nM | 84% | 5 nM | 5.4 nM | 7.31 nM | 0.417 nM | 5.06 nM | 8.2 nM | 8.4 nM | – | – | 5571 (antibody, V domains shown, anti-BACE1 IgG) VH: QVQLVQSGAEVKKPGSSVKVSCKASGGTFSSYAISWVRQAPGQGLEWMGNIIPIFGTANYAQKFQGRVTITADESTSTAYMELSSLRSEDTAVYYCARSGGTKYGMLDVWGQGTVVTVSS VL: EIVMTQSPATLSVSPGERATLSCRASQSVSSNLAWYQQKPGQAPRLLIYGASTRATGIPARFSGSGSGTEFTLTISSLQSEDFAVYYCQQLILWPPRTFGGGTKVEIK |
| 75% | 77% | 27.1 nM | 73% | 0.86 nM | 2.5 nM | 2.82 nM | 15.9 nM | 1.28 nM | 1.5 nM | 2 nM | – | – | 5572 (antibody, V domains shown, anti-BACE1 IgG) VH: QVQLVQSGAEVKKPGSSVKVSCKASGGTFSSYAISWVRQAPGQGLEWMGSIIPIFGTANYAQKFQGRVTITADESTSTAYMELSSLRSEDTAVYYCARSGGTKYGMLDVWGQGTMVTVSS VL: EIVMTQSPATLSVSPGERATLSCRASQSVGSNLAWYQQKPGQAPRLLIYGASTRATGIPARFSGSGSGTEFTLTISSLQSEDFAVYYCQQLYTWPPRTFGGGTKVEIK |
| -129% | -275% | 9.11 nM | 82% | 4.6 nM | 6.6 nM | 6.04 nM | 0.607 nM | 5.93 nM | 8.7 nM | 11 nM | – | – | 5883 (antibody, V domains shown, anti-BACE1 IgG) VH: QVQLVQSGAEVKKPGSSVKVSCKASGGTFSSYAISWVRQAPGQGLEWMGGIIPIGGGANYAQKFQGRVTITADESTSTAYMELSSLRSEDTAVYYCARSGGTKYGMLDVWGQGTMVTVSS VL: EIVMTQSPATLSVSPGERATLSCRASQSVSSNLAWYQQKPGQAPRLLIYGASTRATGIPARFSGSGSGTEFTLTISSLQSEDFAVYYCQQLILWPPRTFGGGTKVEIK |
| 97% | 98% | – | – | 2.6 nM | 2.4 nM | 7.92 nM | 5.93 nM | 33.7 nM | 11 nM | 15 nM | – | – | 5881 (antibody, V domains shown, anti-BACE1 IgG) VH: EVQLLESGGGLVQPGGSLRLSCAASGFTFSKYAMSWVRQAPGKGLEWVSAISGSGISTPYADSVKGRFTISRDNSKNTLYLQMNSLRAEDTAVYYCAKGAGHGSYVKGWFDPWGQGTLVTVSS VL: EIVLTQSPATLSLSPGERATLSCRASQSVSSYLAWYQQKPGQAPRLLIYDASNRATGIPARFSGSGSGTDFTLTISSLEPEDFAVYYCQQSVNFPFTFGGGTKVEIK |
| 65% | 63% | 8.33 nM | 72% | 15 nM | 17 nM | 13.3 nM | 8.47 nM | 8.75 nM | 12 nM | 11 nM | – | – | 5644 (antibody, V domains shown, anti-BACE1 IgG) VH: QLQLQESGPGLVKPSETLSLTCTVSGGSISSSSYYWGWIRQPPGKGLEWIGSIYYSGSTYYNPSLKSRVTISVDTSKNQFSLKLSSVTAADTAVYYCARVGHGISYFDLWGRGTLVTVSS VL: EIVLTQSPATLSLSPGERATLSCRASQSVSSYLAWYQQKPGQAPRLLIYDASKRATGIPARFSGSGSGTDFTLTISSLEPEDFAVYYCQQVYTWPPRTFGGGTKVEIK |
| 51% | 39% | – | – | 32 nM | 22 nM | 1.94 nM | 1.99 nM | 4.9 nM | 50 nM | 120 nM | – | – | 5875 (antibody, V domains shown, anti-BACE1 IgG) VH: EVQLLESGGGLVQPGGSLRLSCAASGFTFSTYAMGWVRQAPGKGLEWVSATSGSGGSTYYADSVKGRFTISRDNSKNTLYLQMNSLRAEDTAVYYCAKGGSQWLYAPGSWFDPWGQGTLVTVSS VL: EIVLTQSPATLSLSPGERATLSCRASQSVSSYLAWYQQKPGQAPRLLIYDASNRATGIPARFSGSGSGTDFTLTISSLEPEDFAVYYCVQRSNFPWTFGGGTKVEIK |
| 58% | 46% | – | – | 9.4 nM | 9.7 nM | 0.72 nM | 0.703 nM | 1.67 nM | 31 nM | 43 nM | – | – | 5876 (antibody, V domains shown, anti-BACE1 IgG) VH: EVQLLESGGGLVQPGGSLRLSCAASGFTFSSRAMGWVRQAPGKGLEWVSATSGSGGSIYYADSVKGRFTISRDNSKNTLYLQMNSLRAEDTAVYYCAKGGSQWLYAPGSWFDPWGQGTLVTVSS VL: EIVLTQSPATLSLSPGERATLSCRASQSVSSYLAWYQQKPGQAPRLLIYDASNRATGIPARFSGSGSGTDFTLTISSLEPEDFAVYYCVQRSNFPWTFGGGTKVEIK |
| – | – | – | – | – | – | – | – | – | – | – | 10.1 nM | 5.12 nM | hu15G11.v1 (antibody, V domains shown, IgG; HC 48 M, 67 V, 69 I, 71 R, 73 T) VH: EVQLVQSGAEVKKPGASVKVSCKASGYTFTSYWMHWVRQAPGQRLEWMGEINPTNGRTNYIEKFKSRVTITRDTSASTAYMELSSLRSEDTAVYYCARGTRAYHYWGQGTMVTVSS VL: DIQMTQSPSSLSASVGDRVTITCRASDNLYSNLAWYQQKPGKAPKLLLYDATNLADGVPSRFSGSGSGTDYTLTISSLQPEDFATYYCQHFWGTPLTFGQGTKVEIK |
| – | – | – | – | – | – | – | – | – | – | – | 17.6 nM | 9.35 nM | hu15G11.v2 (antibody, V domains shown, IgG; HC 48 M, 67 V, 69 I, 71 V, 73 T) VH: EVQLVQSGAEVKKPGASVKVSCKASGYTFTSYWMHWVRQAPGQRLEWMGEINPTNGRTNYIEKFKSRVTITVDTSASTAYMELSSLRSEDTAVYYCARGTRAYHYWGQGTMVTVSS VL: DIQMTQSPSSLSASVGDRVTITCRASDNLYSNLAWYQQKPGKAPKLLLYDATNLADGVPSRFSGSGSGTDYTLTISSLQPEDFATYYCQHFWGTPLTFGQGTKVEIK |
| – | – | – | – | – | – | – | – | – | – | – | 5.34 nM | 4.12 nM | hu15G11.v3 (antibody, V domains shown, IgG; HC 48 M, 67 V, 69 I, 71 R, 73 T) VH: EVQLVQSGAEVKKPGASVKVSCKASGYTFTSYWMHWVRQAPGQRLEWMGEINPTNGRTNYIEKFKSRVTITRDTSASTAYMELSSLRSEDTAVYYCARGTRAYHYWGQGTMVTVSS VL: DIQMTQSPSSLSASVGDRVTITCRASDNLYSNLAWYQQKPGKSPKLLVYDATNLADGVPSRFSGSGSGTDYTLTISSLQPEDFATYYCQHFWGTPLTFGQGTKVEIK |
| – | – | – | – | – | – | – | – | – | – | – | 7.04 nM | 3.89 nM | hu15G11.v4 (antibody, V domains shown, IgG; HC 48 M, 67 V, 69 I, 71 V, 73 T) VH: EVQLVQSGAEVKKPGASVKVSCKASGYTFTSYWMHWVRQAPGQRLEWMGEINPTNGRTNYIEKFKSRVTITVDTSASTAYMELSSLRSEDTAVYYCARGTRAYHYWGQGTMVTVSS VL: DIQMTQSPSSLSASVGDRVTITCRASDNLYSNLAWYQQKPGKSPKLLVYDATNLADGVPSRFSGSGSGTDYTLTISSLQPEDFATYYCQHFWGTPLTFGQGTKVEIK |
